From paper PMC7176092, “Development of the first in vivo GPR17 ligand through an iterative drug discovery pipeline: A novel disease-modifying strategy for multiple sclerosis” (PLoS ONE, 2020)

Key:
ADR1A = biological target: T1, ADR1A (Homo sapiens, UniProt P35348); test: Binding assay ADR1A; conditions: reference compound
T1 construct: Eurofins Cerep (external service)
T1 sequence (P35348 1-466): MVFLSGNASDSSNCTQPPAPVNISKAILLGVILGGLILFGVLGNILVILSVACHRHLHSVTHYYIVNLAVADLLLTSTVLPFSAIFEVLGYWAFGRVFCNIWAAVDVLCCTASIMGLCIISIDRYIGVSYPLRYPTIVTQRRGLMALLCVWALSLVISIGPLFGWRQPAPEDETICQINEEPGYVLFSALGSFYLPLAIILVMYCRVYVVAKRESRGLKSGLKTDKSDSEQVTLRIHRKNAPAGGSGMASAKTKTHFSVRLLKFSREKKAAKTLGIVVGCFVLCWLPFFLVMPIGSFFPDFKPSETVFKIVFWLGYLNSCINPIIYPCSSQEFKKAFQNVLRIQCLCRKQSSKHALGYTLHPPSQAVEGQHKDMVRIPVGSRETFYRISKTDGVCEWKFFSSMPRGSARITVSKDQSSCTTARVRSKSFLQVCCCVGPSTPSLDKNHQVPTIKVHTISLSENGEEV

CXCR5 = biological target: T2, CXCR5 (Homo sapiens, UniProt P32302); test: Cellular functional assay CXCR5; conditions: reference agonist
T2 sequence (P32302 1-372): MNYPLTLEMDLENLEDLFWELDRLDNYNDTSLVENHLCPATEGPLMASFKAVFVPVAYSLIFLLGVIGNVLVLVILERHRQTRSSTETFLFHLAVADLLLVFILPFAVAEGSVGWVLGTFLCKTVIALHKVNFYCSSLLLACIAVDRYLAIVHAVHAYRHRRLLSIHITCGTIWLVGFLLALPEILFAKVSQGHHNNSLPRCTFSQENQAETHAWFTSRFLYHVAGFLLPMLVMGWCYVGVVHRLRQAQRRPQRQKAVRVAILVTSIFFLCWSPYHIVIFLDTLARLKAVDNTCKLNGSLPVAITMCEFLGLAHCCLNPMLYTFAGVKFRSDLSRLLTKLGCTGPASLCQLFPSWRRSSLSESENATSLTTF

CXCR3 = biological target: T3, CXCR3 (Homo sapiens, UniProt P49682); test: Cellular functional assay CXCR3; conditions: reference agonist
T3 sequence (P49682 1-368): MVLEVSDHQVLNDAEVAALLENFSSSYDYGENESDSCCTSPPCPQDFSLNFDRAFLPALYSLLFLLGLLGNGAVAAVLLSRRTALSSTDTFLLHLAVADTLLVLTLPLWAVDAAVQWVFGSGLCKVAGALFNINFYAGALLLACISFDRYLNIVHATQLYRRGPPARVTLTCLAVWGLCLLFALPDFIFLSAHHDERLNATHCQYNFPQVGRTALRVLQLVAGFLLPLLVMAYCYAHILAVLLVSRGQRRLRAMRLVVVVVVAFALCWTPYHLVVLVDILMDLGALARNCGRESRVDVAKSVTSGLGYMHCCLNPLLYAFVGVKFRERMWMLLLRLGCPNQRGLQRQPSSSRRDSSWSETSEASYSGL

CCR4 = biological target: T4, CCR4 (Homo sapiens, UniProt P51679); test: Cellular functional assay CCR4; conditions: reference agonist
T4 sequence (P51679 1-360): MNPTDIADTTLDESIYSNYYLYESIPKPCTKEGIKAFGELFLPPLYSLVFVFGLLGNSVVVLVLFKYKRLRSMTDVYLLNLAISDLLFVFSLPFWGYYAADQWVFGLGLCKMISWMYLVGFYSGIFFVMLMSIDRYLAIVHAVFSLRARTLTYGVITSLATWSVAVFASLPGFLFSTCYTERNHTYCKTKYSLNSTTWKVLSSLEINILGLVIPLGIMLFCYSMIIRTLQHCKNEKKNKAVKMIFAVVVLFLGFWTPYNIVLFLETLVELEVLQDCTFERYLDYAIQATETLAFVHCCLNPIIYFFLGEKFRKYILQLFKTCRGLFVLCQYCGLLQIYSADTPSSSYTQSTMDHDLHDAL

CXCR4 = CXCR4 (Homo sapiens, UniProt P61073); test: Cellular functional assay CXCR4; conditions: reference antagonist
CCR9 = biological target: T5, CCR9 (Homo sapiens, UniProt P51686); test: Cellular functional assay CCR9; conditions: reference agonist
T5 sequence (P51686 1-369): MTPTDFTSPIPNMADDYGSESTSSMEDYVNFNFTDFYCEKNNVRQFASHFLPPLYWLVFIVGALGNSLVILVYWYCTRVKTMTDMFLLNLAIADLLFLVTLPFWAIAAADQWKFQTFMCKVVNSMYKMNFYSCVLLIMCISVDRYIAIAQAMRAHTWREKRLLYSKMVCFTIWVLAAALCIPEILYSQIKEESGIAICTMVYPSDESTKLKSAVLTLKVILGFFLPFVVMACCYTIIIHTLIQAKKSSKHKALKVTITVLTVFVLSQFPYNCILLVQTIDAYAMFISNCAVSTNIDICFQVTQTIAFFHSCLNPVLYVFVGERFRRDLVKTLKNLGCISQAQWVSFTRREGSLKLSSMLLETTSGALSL

CCR10 = biological target: T6, CCR10 (Homo sapiens, UniProt P46092); test: Cellular functional assay CCR10; conditions: reference agonist
T6 sequence (P46092 1-362): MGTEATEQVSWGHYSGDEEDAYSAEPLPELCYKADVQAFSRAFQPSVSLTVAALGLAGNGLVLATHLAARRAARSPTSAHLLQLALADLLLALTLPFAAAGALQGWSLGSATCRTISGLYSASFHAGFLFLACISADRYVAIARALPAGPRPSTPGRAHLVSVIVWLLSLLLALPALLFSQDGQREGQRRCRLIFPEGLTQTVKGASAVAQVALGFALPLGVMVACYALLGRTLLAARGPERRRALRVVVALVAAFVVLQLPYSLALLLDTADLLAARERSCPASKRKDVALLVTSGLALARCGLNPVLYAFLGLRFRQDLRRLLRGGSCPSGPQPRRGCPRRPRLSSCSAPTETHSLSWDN

CXCR6 = CXCR6 (Homo sapiens, UniProt O00574); test: Cellular functional assay CXCR6; conditions: reference agonist
CCR8 = CCR8 (Homo sapiens, UniProt P51685); test: Cellular functional assay CCR8; conditions: reference agonist
CCR8, sequence (P51685 whole entry): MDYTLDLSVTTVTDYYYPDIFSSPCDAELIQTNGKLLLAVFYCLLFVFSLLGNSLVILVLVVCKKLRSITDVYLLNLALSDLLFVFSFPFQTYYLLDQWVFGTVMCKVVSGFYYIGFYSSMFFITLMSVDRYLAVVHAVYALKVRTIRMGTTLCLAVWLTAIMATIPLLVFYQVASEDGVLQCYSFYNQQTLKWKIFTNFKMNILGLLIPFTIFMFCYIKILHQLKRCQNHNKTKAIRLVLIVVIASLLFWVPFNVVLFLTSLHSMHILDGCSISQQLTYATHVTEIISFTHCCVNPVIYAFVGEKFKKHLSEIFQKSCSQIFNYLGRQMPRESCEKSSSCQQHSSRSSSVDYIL

CXCR4, sequence (P61073 whole entry): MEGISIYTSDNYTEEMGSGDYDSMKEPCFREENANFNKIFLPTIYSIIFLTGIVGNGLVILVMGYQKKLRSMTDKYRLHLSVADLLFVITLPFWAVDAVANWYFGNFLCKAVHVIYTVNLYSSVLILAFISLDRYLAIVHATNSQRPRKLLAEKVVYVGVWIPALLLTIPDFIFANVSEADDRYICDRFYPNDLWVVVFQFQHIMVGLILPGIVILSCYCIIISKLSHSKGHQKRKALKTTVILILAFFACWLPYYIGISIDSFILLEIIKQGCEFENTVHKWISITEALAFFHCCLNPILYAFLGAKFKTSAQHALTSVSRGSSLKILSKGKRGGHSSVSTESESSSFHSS
CXCR6, sequence (O00574 whole entry): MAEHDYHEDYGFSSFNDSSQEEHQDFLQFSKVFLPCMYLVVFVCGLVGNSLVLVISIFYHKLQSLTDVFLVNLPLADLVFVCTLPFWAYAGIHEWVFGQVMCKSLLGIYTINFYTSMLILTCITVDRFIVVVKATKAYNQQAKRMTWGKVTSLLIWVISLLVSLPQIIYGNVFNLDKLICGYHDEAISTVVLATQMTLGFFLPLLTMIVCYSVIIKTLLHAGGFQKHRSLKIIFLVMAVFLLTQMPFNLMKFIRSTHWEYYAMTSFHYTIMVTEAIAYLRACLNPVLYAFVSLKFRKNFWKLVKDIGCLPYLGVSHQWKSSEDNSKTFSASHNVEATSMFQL

`COc1cccc(OC)c1OCCNCC1COc2ccccc2O1` (stereo not drawn) [WB 4101, reference compound] gave an IC50 (ADR1A) of 0.39 nM.

For “CXCL13/BLC/BCA-1: chemokine, reference agonist for CXCR5”, the EC50 (CXCR5) was 3.8 nM.

“I-TAC: chemokine, reference agonist for CXCR3” was tested, and the EC50 (CXCR3) was 2.3 nM.

B1: TARC: chemokine, reference agonist for CCR4 (protein, UniProt Q92583 24-94, looked up)
C-C motif chemokine 17: ARGTNVGRECCLEYFKGAIPLRKLKTWYQTSEDCSRDAIVFVTVQGRAICSDPNNKRVKNAVKYLQSLERS
B1 was tested, and the EC50 (CCR4) was 0.34 nM.

B2: MIP-II: reference antagonist for CXCR4 (protein)
chain: LGASWHRPDKCCLGYQKRPLPQVLLSSWYPTSQLCSKPGVIFLTKRGRQVCADKSKDWVKKLMQQLPVTAR
With B2 the IC50 (CXCR4) was 150 nM.

B3: CCL25: chemokine, reference agonist for CCR9 (protein, UniProt O15444 24-150, looked up)
C-C motif chemokine 25: QGVFEDCCLAYHYPIGWAVLRRAWTYRIQEVSGSCNLPAAIFYLPKRHRKVCGNPKSREVQRAMKLLDARNKVFAKLHHNTQTFQAGPHAVKKLSSGNSKLSSSKFSNPISSSKRNVSLLISANSGL
In the case of B3, the EC50 (CCR9) is reported as 2 nM.

B4: CTACK/CCL27: chemokine, reference agonist for CCR10 (protein, UniProt Q9Y4X3 25-112, looked up)
C-C motif chemokine 27: FLLPPSTACCTQLYRKPLSDKLLRKVIQVELQEADGDCHLQAFVLHLAQRSICIHPQNPSLSQWFEHQERKLHGTLPKLNFGMLRKMG
With B4 the EC50 (CCR10) was 5 nM.

B5: CXCL16: chemokine, reference agonist for CXCR6 (protein, UniProt Q9H2A7 30-254, looked up)
C-X-C motif chemokine 16: NEGSVTGSCYCGKRISSDSPPSVQFMNRLRKHLRAYHRCLYYTRFQLLSWSVCGGNKDPWVQELMSCLDLKECGHAYSGIVAHQKHLLPTSPPISQASEGASSDIHTPAQMLLSTLQSTQRPTLPVGSLSSDKELTRPNETTIHTAGHSLAAGPEAGENQKQPEKNAGPTARTSATVPVLCLLAIIFILTAALSYVLCKRRRGQSPQSSPDLPVHYIPVAPDSNT
Molecule B5 has an EC50 (CXCR6) of 1.6 nM.

B6: I-309: chemokine, reference agonist for CCR8 (protein, UniProt P22362 24-96, looked up)
C-C motif chemokine 1: KSMQVPFSRCCFSFAEQEIPLRAILCYRNTSSICSNEGLIFKLKRGKEACALDTVGWVQRHRKMLRHCPSKRK
Work on B6 yielded an EC50 (CCR8) of 0.72 nM.
